{"source": "patent US11795460B2", "about": "“Compositions and methods for TTR gene editing and treating ATTR amyloidosis” (Intellia Therapeutics, Inc., priority 2017, dated 2023)", "molecules": {"B1": {"name": "G000481: TTR sgRNA modified sequence, Human, SEQ ID No. 88; guide sequence of CR003345 (nucleic acid)", "guide": "mU*mC*mU*rArGrArArCrUrUrUrGrArCrCrArUrCrArGrGrUrUrUrUrArGrAmGmCmUmAmGmAmAmAmUmAmGmCrArArGrUrUrArArArArUrArArGrGrCrUrArGrUrCrCrGrUrUrArUrCrAmAmCmUmUmGmAmAmAmAmAmGmUmGmGmCmAmCmCmGmAmGmUmCmGmGmUmGmCmU*mU*mU*mU"}}, "key": {"[1]": {"system": "HuTTR V30M locus", "assay": "Liver editing in humanized transgenic V30M mouse model of hereditary ATTR amyloidosis", "format": "in vivo", "details": "V30M humanized mice, single 1 mg/kg dose of LNP", "procedure": "Unless otherwise noted, CD-1 female mice, ranging from 6-10 weeks of age were used in each study. Animals were weighed and grouped according to body weight for preparing dosing solutions based on group average weight. LNPs were dosed via the lateral tail vein in a volume of 0.2 mL per animal (approximately 10 mL per kilogram body weight). […] Body weight was measured at twenty-four hours post-administration, and animals were euthanized at various time points by exsanguination via cardiac puncture under isoflourane anesthesia. Blood was collected into serum separator tubes or into tubes containing buffered sodium citrate for plasma as described herein. […]\nTo quantitatively determine the efficiency of editing at the target location in the genome, sequencing was utilized to identify the presence of insertions and deletions introduced by gene editing. […]\nAdditional PCR was performed per the manufacturer's protocols (Illumina) to add chemistry for sequencing. […] The reads were aligned to a reference genome (e.g., the human reference genome (hg38), the cynomologus reference genome (mf5), the rat reference genome (rn6), or the mouse reference genome (mm10)) after eliminating those having low quality scores. […]"}, "[2]": {"system": "TTR protein amyloid deposition", "assay": "Semi-quantitative immunohistochemistry of TTR in stomach, colon, sciatic nerve, DRG of V30M mice", "format": "in vivo, mouse", "details": "8 weeks post-treatment, single 1 mg/kg dose", "procedure": "(§1) A well-established humanized transgenic mouse model of hereditary ATTR amyloidosis that expresses the V30M pathogenic mutant form of human TTR protein was used in this Example. This mouse model recapitulates the TTR deposition phenotype in tissues observed in ATTR patients, including within the peripheral nervous system and gastrointestinal (GI) tract (See Santos et al., Neurobiol Aging. 2010 February; 31(2):280-9).\n(§2) Mice (aged approximately 4-5 months) were dosed with LNP formulations prepared using the cross-flow and TFF procedures as described in Example 1. The LNPs were formulated with an N:P ratio of 6.0 and contained Lipid A, Cholesterol, DSPC, and PEG2k-DMG in a 50:38:9:2 molar ratio, respectively. The LNPs contained Cas9 mRNA (SEQ ID NO: 1) and either G000481 (“G481”) or a non-targeting control guide G000395 (“G395”; SEQ ID NO: 273), in a 1:1 ratio of gRNA:mRNA by weight.\n(§3) Mice were injected via the lateral tail vein as described in Example 1 with a single 1 mg/kg (of total RNA content) dose of LNP with an n=10/group. […] Human TTR protein levels were measured in serum and cerebrospinal fluid (CSF) by ELISA as previously described by Butler et al., Amyloid. […] Other tissues (stomach, colon, sciatic nerve, dorsal root ganglion (DRG)) were collected and processed for semi-quantitative immunohistochemistry as previously described by Gonsalves et al., Amyloid. […]"}, "[3]": {"system": "human TTR protein", "assay": "Human TTR protein ELISA in serum and cerebrospinal fluid of V30M mice", "format": "in vivo, mouse", "details": "V30M humanized mice, single 1 mg/kg dose, 8 weeks post treatment", "procedure": "as §1, §2, §3"}}, "note": "Strand notation (5' to 3'): a small letter for the sugar, then the base; units joined by * are phosphorothioate-linked, units joined directly phosphodiester-linked; [ ] holds rarer units or linkages, { } end groups; capitals alone tell only the bases. m = 2'-O-methyl; r = 2'-OH (RNA)", "data": [{"molecule": "B1", "values": [{"measurement": "Editing of TTR in livers", "setting": "[1]; 8 weeks post treatment", "value": 49.4, "unit": "%"}, {"measurement": "Share of editing events that were insertions", "setting": "[1]; remainder deletions", "value": 96.8, "unit": "%"}, {"measurement": "Reduction in TTR staining across the treated tissues", "setting": "[2]", "value": "≥ 85", "unit": "%"}, {"measurement": "TTR protein levels in CSF", "setting": "[3]", "value": "not in CSF"}, {"measurement": "Knockdown of TTR plasma levels", "setting": "[3]; p<0.001", "value": "greater than 99%"}]}]}
